Test: yeast display, Sf9 membrane polyspecificity reagent, FACS + sequencing; frameworks hold sequencing errors
In short: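 Polyreactivity labels are assigned by the sorting gate from which each nanobody was recovered. The gates were low and high (top ~1%), set on anti-HA fluorescence for expression and streptavidin fluorescence for reagent binding. Before sorting, galactose-induced (36–48 hours) yeast display cells were stained for 1 hour at 4 °C with 10% biotinylated, detergent-solubilized Sf9 membrane reagent.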

QVQLVESGGGLVQAGGSLRLSCAASGNIFYINAMGWYRQAPGKERELVAAISSGGRTNYADSVKGRFTISRDNAKNTVYLQMNSLNPEDTEVYYCNADGWYAWRYYAPGGYDYWGQGTQVTVSS
polyreactivity (PSR sort gate): low polyreactivity

QVQLVESGGGLVQAGGSLRLSCAASGNIFYNVMGWYRQAPGKERELVAVISSGDSTYYADSVKGRFTISRDNAKNTVYLQMNSLKPEDTAVYYCNAQWITSAYLLYSYDYWWGYDYWGQGTQVTVSS
polyreactivity (PSR sort gate): high polyreactivity

QVQLVESGGGLVQAGGSLRLSCAASGNIFYRYAMGWYRQAPGKERELVAAISGNSGNTYYADSVKGRFTISRDNAKNSVYLQMNSLKPEDTAVYYCAARPYYSYAGSGGYWGQGTQVTLSS
polyreactivity (PSR sort gate): high polyreactivity

QVQLVESGGGLVQAGGSLRLSCAASGNIFYVYVMGGYRQAPGKERELVASITSGASTYYADSVKGRFTISRDNAKNTVYLQMNSLKPDDTAVYYCAAEALGGAGDYSTLYIYDYWGQGTQVTVSS
polyreactivity (PSR sort gate): low polyreactivity

QVQLVESGGGLVQAGGSLRLSCAASGNIFYYNAMGWYRQAPGKVRELVAAITRSAGSTYYADSVKGRFPISRDNAKNTVYLQMNSLKPEDTAVYYCAATYSDLGYRYYSLGQGTQVTVSS
polyreactivity (PSR sort gate): high polyreactivity

QVQLVESGGGLVQAGGSLRLSCAASGNIIIPYAMGWYRQAPGNEREFVAVMSTRGGSTYYADSVKGRFTISRDNAQNTVYLQMNSLKPEDTAVYYCAARYPYRYDYWGQGTQVTVSS
polyreactivity (PSR sort gate): high polyreactivity

QVQLVESGGGLVQAGGSLRLSCAASGNIITTYAMGWYRQAPGKERELVAAISRSGGRTNYADSVKGRFTISRDNAKNTVYLQMNSLKPEDTAVYYCAADGVPGRAVDYEYWGQGTQVTVSS
polyreactivity (PSR sort gate): high polyreactivity

QVQLVESGGGLVQAGGSLRLSCAASGNILEGYTMGWYRQAPGKERELVATISGRGGSTYYADSVKGRFTISRDYAKNTVYLQMHSLKPEDTAVYYCNALPWALYDSTSIYYYWGQGTQVTVSS
polyreactivity (PSR sort gate): low polyreactivity

QVQLVESGGGLVQAGGSLRLSCAASGNILEGYTMGWYRQAPGQERELVATISGRGGSTYYADSVKGRFTMSRDNAKNTVYLQMHSLKPEDTAVYYCNALPWALYESTSIYYYWGQGTQVTVSS
polyreactivity (PSR sort gate): low polyreactivity

QVQLVESGGGLVQAGGSLRLSCAASGNILGSYAMGWYRQAPWKQRELVAAITWSGGTTYYADSVKGRFTISCDNAKNTVYLQMNSLKPEDTAVYYCAVEIVLTRFDYWGQGTQVTVSS
polyreactivity (PSR sort gate): low polyreactivity

QVQLVESGGGLVQAGGSLRLSCAASGNILGTYAMGWYRQAPGKERELVAAISSSVGSTYYADSVKGRFSISRDNAKKTVYLQMNSLKPEDTAVYYCAARNYQFYEKWGYLYDYWGQGTQVTVSS
polyreactivity (PSR sort gate): low polyreactivity

QVQLVESGGGLVQAGGSLRLSCAASGNILRFNAMGWYRQAPGKERELVAAISRSGGTTYYADSVKGRFTISRDNAKNTVYLQMNSLKPEDTAVYYCAARSRYGESPGYYWGQGTQVTVSS
polyreactivity (PSR sort gate): high polyreactivity

QVQLVESGGGLVQAGGSLRLSCAASGNISLPYTMGWYRQAPGKERELVAAISWDGGRTYYADSVKGRFTISRDNAKNTDYLQMNSLKPEDTAVYYCGARFFLVTLDYWGQGTQVTVSS
polyreactivity (PSR sort gate): low polyreactivity

QVQLVESGGGLVQAGGSLRLSCAASGNMFYRNGMGWYRQAPGKERQFVAAISRRGGSTYYADSVKGRFTISRDNAKNTVYLQMNSLKPEDTAVYYCATRYWPTNKGEYWGQGTQVTVSS
polyreactivity (PSR sort gate): high polyreactivity

QVQLVESGGGLVQAGGSLRLSCAASGNNFSRYSMGCSRPAPGKERELVASISRGGRTNYADSVKGRFTISLDNAKNTVYLQMNSLNPEDTAVYYCALGGNGYWHQSGPYPYNYWGQGTQVTVSS
polyreactivity (PSR sort gate): high polyreactivity

QVQLVESGGGLVQAGGSLRLSCAASGNNLSVYTMGWYRQAPGKERELVATITYSGDRTYADSVKGRFTISRDNAKNTVYLQMNSLKPEDTAVYYCAKRNFGSYIRRGHWGQGTQVTVSS
polyreactivity (PSR sort gate): low polyreactivity

QVQLVESGGGLVQAGGSLRLSCAASGNSFREYTMGWCRQAPGKERELVAGISGSGGRTYYADSVKGRFTISRDNAKNTVFLQMNSLKPEDTAVYYCNDRWYYGIGYNYWGQGTQVTVSS
polyreactivity (PSR sort gate): high polyreactivity

QVQLVESGGGLVQAGGSLRLSCAASGNTFAGNAMGWYRHAPRKERELVAAISRSGVTTRYGDSVKGRFTISRDNAKNTVYLQMNSLKPEDTAVYYCNAVPRLRQTREYWGQGTQVTVSS
polyreactivity (PSR sort gate): high polyreactivity

QVQLVESGGGLVQAGGSLRLSCAASGNTFAGNAMGWYRQAPGKERELVAAISRSGVTTRYADSVKGRFTISRDNAKNTVYLQMNSLKPEDTAVYYCNADPRLRQTRDYWGQGTQVTVSS
polyreactivity (PSR sort gate): high polyreactivity

QVQLVESGGGLVQAGGSLRLSCAASGNTFASNAMGWYRQAPGKERELVATISTSGTTYYADSVKGRFTISRDNAKNTVYLQMNSLKPEDTAVYYCARTFKSRRGSRGYYWGQGTQVTVSS
polyreactivity (PSR sort gate): high polyreactivity

QVQLVESGGGLVQAGGSLRLSCAASGNTFATYAMGWYRQAPGKERELVAGITVDGASTNYADSVKGRFTISRDNAKNTVYLQMNSLKPEDTAVYYCNADYTTQVYDSTWPGDFGYWGQGTQVTVSS
polyreactivity (PSR sort gate): high polyreactivity

QVQLVESGGGLVQAGGSLRLSCAASGNTFAVNAMGWYRQAPGKERELVAAISKRGGRTYYADSVKGRFTISRDNAKNTVYLQMNSLKPEDTAVYYCNTGYIFSSFYSSKYGYWGQGTQVTVSS
polyreactivity (PSR sort gate): high polyreactivity

QVQLVESGGGLVQAGGSLRLSCAASGNTFDGYDMGWYRQAPGKERELVAAITNTGASTYYADSVKGRFTISRDNAKNTVYLQMNSLKPEDTAVYYCIAQDSYPEDRHGMSYWGQGTQVTVSS
polyreactivity (PSR sort gate): low polyreactivity

QVQLVESGGGLVQAGGSLRLSCAASGNTFDIYAMGWYRQAPGKERELVAAISRRGGSTYYADSVKGRFTISRDNAKNTVYLQMNSLKPEDTAVYYCNTYSGPYSISDYWGQGTQVTVSS
polyreactivity (PSR sort gate): high polyreactivity

QVQLVESGGGLVQAGGSLRLSCAASGNTFDIYTMGWYRPAPGKERELVATISSGGRTNYADSVKGRFTISRDNAKNTVYLQMNSLNPEDTAVYYCAKNLRYVWWYDHFRPYGYWGQGTQVTVSS
polyreactivity (PSR sort gate): high polyreactivity

QVQLVESGGGLVQAGGSLRLSCAASGNTFDVYVMGWYRQAPGKERELVAAINKGGGRTYYADSVKGRFTISRDNAKNTVYLQMNSLKPEDTAVYYCAAVSPKYESSYYYWGQGTQVTVSS
polyreactivity (PSR sort gate): high polyreactivity

QVQLVESGGGLVQAGGSLRLSCAASGNTFEHYAMGWYRQAPGKERELVAAISYSGGSTYYADSVKGRFTISRDNAKNTVYLQMNSLKPEDTAVYYCNARGRASATGRRGRPDPFGYWGQGTQVTVSS
polyreactivity (PSR sort gate): high polyreactivity

QVQLVESGGGLVQAGGSLRLSCAASGNTFFDNAMGWYRQAPGKERELVAAITFSGGSTYYADSVKGRFTISRDNAKNTVYLQMNSLKPEDTAVYYCAAVIRSRYSYYEYDYWGQGTQVTVSS
polyreactivity (PSR sort gate): high polyreactivity

QVQLVESGGGLVQAGGSLRLSCAASGNTFFLNAMGWYRQAPGKERELVAAITSSGGSTYYADSVKGRFTISRDNAKNTVYLQMNSLKPEDTAVYYCATDRSYPPRSLNRRGPYEYWGQGTQVTVSS
polyreactivity (PSR sort gate): low polyreactivity

QVQLVESGGGLVQAGGSLRLSCAASGNTFFRYAMGWYRQAPGKERELVAAISKSGGSTYYADSVKGRFTISRDNAKNTVYLQMNSLKPEDTAVYYCAAYSPYGRYDYWGQGTQVTVSS
polyreactivity (PSR sort gate): high polyreactivity

QVQLVESGGGLVQAGGSLRLSCAASGNTFGFNAMGWYTQAPGKERELVAAIRRGSGRTYYADSVKGRFTISRDNAKNTVYLQMNSLKPEDTAVYYCAAAPTTGKRPGYYYWGLGTQVTVSS
polyreactivity (PSR sort gate): high polyreactivity

QVQLVESGGGLVQAGGSLRLSCAASGNTFGGYAMGWYRQAPGKERELVATISYADSVKGRFTISRDNAKNTVYLQMNSLKPEDTAVYYCNKQFGYPWEYYSYSYDYWGQGTQVTVSS
polyreactivity (PSR sort gate): low polyreactivity

QVQLVESGGGLVQAGGSLRLSCAASGNTFGLYAMGWYIQAPGKERELVAAIRRGGRTYADSVKGRFTISRDNAKNTVYGQMNSLKPEDTAVYYCAAYYVFLDNDYWGQGSQVTVSS
polyreactivity (PSR sort gate): high polyreactivity

QVQLVESGGGLVQAGGSLRLSCAASGNTFGNYGMGWYRQAPGKEREFVAAITSRGTSTYYADSVKGRFTISRDNAKNTVYLQMNSLKPEDTAVYYCNARPRYKYPRYDYWVQGTQVTVSS
polyreactivity (PSR sort gate): high polyreactivity

QVQLVESGGGLVQAGGSLRLSCAASGNTFGTYVMGWYRPAPGKERELVAAISQSGGSTDYADSVKGRFTISRDNAKKTVYLQMNSLKPEDTAVYYCAKVTWGTVWYRSPSEYDYWGQGTQVTVSS
polyreactivity (PSR sort gate): low polyreactivity

QVQLVESGGGLVQAGGSLRLSCAASGNTFHPYAMGWYRQAPGKERELVAAITKSGGSTYYADSVKGRFTISRDNAKNTVYLQMNSLKPEDTAFYYCAAESYIEYYLKYDYWGQGSQVTVSS
polyreactivity (PSR sort gate): low polyreactivity

QVQLVESGGGLVQAGGSLRLSCAASGNTFIYYAMGWYRQAPGKERELVAAISRSGGSTYYADSVKGRFTISRDNAKNTVYLQMNSLKPEDTAVYYCAAEATKWIGVVTMDYWGQGTQVTVSS
polyreactivity (PSR sort gate): high polyreactivity

QVQLVESGGGLVQAGGSLRLSCAASGNTFKGYAMGSYRPAPGKERELVAAISWSGSSTYYADSVKGRFTISRDNAKNTVYLQMNSLKPEDTAVYYCAKAFKYTSPRRPYDYWGQGTQVTVSS
polyreactivity (PSR sort gate): high polyreactivity

QVQLVESGGGLVQAGGSLRLSCAASGNTFKYYVMGWYRQAPGKERELVAAITRGGSTYYADSVKGRFTISRDNAKNTVYLQMNSLKPEDTAVYYCATDVKIPNFDYWGQGTQVTVSS
polyreactivity (PSR sort gate): high polyreactivity

QVQLVESGGGLVQAGGSLRLSCAASGNTFLPNAMGWYRQAPGKERELVAAISNSGGSTYYADSVKGRFTISRDNAKNTVYLQMNSLKPEDTAVYYCAKRQWFPYYRGRDYWGQGTQVTVSS
polyreactivity (PSR sort gate): high polyreactivity

QVQLVESGGGLVQAGGSLRLSCAASGNTFNDYAMGWYRQAPGKERELVASISSGGSTYYADSVKGRFTISRDNAKNTVYLQMNSLKPEDTAVYYCAAEWHYIYAYDYWGQGTQVTVSS
polyreactivity (PSR sort gate): low polyreactivity

QVQLVESGGGLVQAGGSLRLSCAASGNTFNSYAMGWYRQAPGKEREFVAAISGSGSSTYYADSVKGRFTISRDNAKNTVYLQMNSLKPEDTAVYYCAARWRYYGSFDYWGQGTQVTVSS
polyreactivity (PSR sort gate): high polyreactivity

QVQLVESGGGLVQAGGSLRLSCAASGNTFNVYAMGWYRQAPGKERELVAAITLSGGSTYYADSVKGRFTISRDNEKNTVYLQMNSLKPEDTAVYYCNAEEDGTDYDYWGQGTQVTVSS
polyreactivity (PSR sort gate): low polyreactivity
